The values that follow come from the nanobody polyreactivity screen of Harvey et al. (2022).

This series in a line: yeast display, Sf9 membrane polyspecificity reagent, FACS + sequencing; frameworks hold sequencing errors. Put shortly: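 A nanobody's polyreactivity label depends on the gate it was sorted from. Yeast display cells were stained with 10% biotinylated, detergent-solubilized Sf9 membrane reagent for 1 hour at 4 °C, enriched on streptavidin microbeads and sorted by FACS. The low and high (top ~1%) gates were set on anti-HA fluorescence for expression and streptavidin fluorescence for reagent binding.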
On to “QVQLVESGGGLVQARGSLRLSCAASGRIFPGYAMGWYRQAPGKERELVAGISNDASTNYADSVKGRFTISRDNAKNTVYLQMNSLKPEDTAVYYCAAEISSLSFPRYDYWGQGTQVTVSS”, for which the “polyreactivity (PSR sort gate)” value was “low polyreactivity”.

For “QVQLVESGGGLVQARGSLRLSCAASGRIFVINAMGWYRQAPGKERELVAAISQSGGSTYYADSVKGRFTISRDNAKNTVYLQMNSLKPEDTAVYYCNALSNVPYDYWGQGTLVTVSS”, the “polyreactivity (PSR sort gate)” value was “low polyreactivity”.

Turning to “QVQLVESGGGLVQARGSLRLSCAASGRIFYFYAMGWYRQAPGKERELVAAITESTSSTYYADSVKGRFTISRDNAKNTVYLQMNSLKPEDTAVYYCAARVSQWLPYGGSSRYYYWGQGTQVTVSS”, the “polyreactivity (PSR sort gate)” value is given as “high polyreactivity”.

As for “QVQLVESGGGLVQARGSLRLSCAASGRTFGGYARGWYRQAPGKERELVATISKRAGSTYYADSVKGRFTISRDHAKNTVYLQMNSLKPEDTAVYYCAKVKSARYQEYEYWGQGTQVTVSS”, the “polyreactivity (PSR sort gate)” value is reported as “high polyreactivity”.

Regarding “QVQLVESGGGLVQARGSLRLSCAASGSIFDDYAMGWYRQAPGKERELVAAISSSGTSTYYADSVKGRFTISRDNAKNTVYLQLNSLKPEDTAVYYCAARSAILKSGYLMEYWGEGTQVTVSS”, the “polyreactivity (PSR sort gate)” value was “low polyreactivity”.

With “QVQLVESGGGLVQARGSLRLSCAASGSIFQYNAMGWYRQAPGKERELVAAINGGGSTYYADSVKGRFTISRNNAKNTVYLQLTSLNPEDTAVYYCNADAMDEDWRGYWGQGTQVTVSS”, the “polyreactivity (PSR sort gate)” value is listed as “low polyreactivity”.

Consider “QVQLVESGGGLVQARGSLRLSCAASGSIFYGNAMGWYRQAHGKERELVAAISQSGGSTYYADSVKGRFTISRDNAKNTVYLQMNSLKPEDTAVYYCAAYTPYATWRYDYWGQGTQVTVSS”, for which the “polyreactivity (PSR sort gate)” value was “low polyreactivity”.

In the case of “QVQLVESGGGLVQARGSLRLSCAASGSTFGGYAMGWYRKAPGKERELVASISAIGGSTYYADSVKGRFTISRDNAKNTFYLQMNSMKPEDTAVYYCAAQRGGGPNDYWGQGTQVTVSS”, the “polyreactivity (PSR sort gate)” value is “high polyreactivity”.

With “QVQLVESGGGLVQARGSLRLSCAASGSTFGWYAMGWYREAPGKERELVAAIYRGGGSTYYADSVKVRFTISRDNAMNTVYLQMNSLKPEDTAVYYCAAYSYYQGGMDYWGEGTQVTVSS”, the “polyreactivity (PSR sort gate)” value is recorded as “high polyreactivity”.

“QVQLVESGGGLVQARGSLRLSCAASGSTFVGYAMGWYRQAPGKEREFVAAITRGGSTNYADSVKGRFTISRDNAKNTVYLQMNSLKPEDTAVYYCAARDRREGFNFDYWGQGTQVTVSS”: the “polyreactivity (PSR sort gate)” value is listed as “low polyreactivity”.

For “QVQLVESGGGLVQARGSLRLSCAASGSTLRRYAMGWYRQAPGKERELVAAISGSGDSTYYADSVKGRFTISRDNAKNTVYLQMNSLKPEDTAVYYCNAVYAFNGYDYWGQGSQVTVSS”, the “polyreactivity (PSR sort gate)” value was “low polyreactivity”.

Turning to “QVQLVESGGGLVQARGSLRLSCAASGYIFAVYAMGWYRQANGKERELVAAITWSGGRTYYADSVKGRFTISLDNAKNTVYLQMNSLKPEDTAVYYCNARARSRKFYYWGQGTQVTVSS”, the “polyreactivity (PSR sort gate)” value is “high polyreactivity”.

As to “QVQLVESGGGLVQARGSLRLSCAASVIIFRLYGRGWYRQAPGKEREFVATITWRGGRTNYADSVKGRFTISRDNAKNTVYLQMNSLKPEDTAVYYCAKVVRYARSNEYDSWGQGTQVTVSS”, the “polyreactivity (PSR sort gate)” value is “low polyreactivity”.

As to “QVQLVESGGGLVQARGSLRLSCAAYGLTLRGYAMGWYRQAPGKERELVAAISGSGTSTYYADSVKWRFTISRDNAKNTVYLQMNSLKPEDTAVYYCAAVKVRKGLEMGYWGQGTQVTVSS”, the “polyreactivity (PSR sort gate)” value is “high polyreactivity”.

For the sequence “QVQLVESGGGLVQARGSLRLSCAGSGRTFGYYAMGWYRHAPGKERELVAAIDQSDTYYADSVKGRFTISRDNAKITVSLQMNSLKPEDTAVYYCAADGDPSIEDEYWGQGTQVTVSS”, the “polyreactivity (PSR sort gate)” value was “high polyreactivity”.

For “QVQLVESGGGLVQARGSLRLSSAAYGRTLYSYAMGWYRQAPGKERELVATIRRSGGSTNYADSVKGRFTISRDNAKNTVYLQMNSLKPEDTAVYYCAAVSFKPEYYYWGQGTQVTVSS”, the “polyreactivity (PSR sort gate)” value is listed as “high polyreactivity”.

As for “QVQLVESGGGLVQARGSLRLSSSASGSIFKYYAMGRYRHAPGKESELGAAISYSGGTTYYADSVKGRFTISRDNAKNTVYLQMNSLKPEDTAVYDCNARYPNFVVRGYAPYDYWGQGSQVTVSS”, the “polyreactivity (PSR sort gate)” value is “low polyreactivity”.

On to “QVQLVESGGGLVQARGSLRLTCAASGNIFVSYAMGWYRPAPGKERELVAAISKRGGSTYYADSVKGRFTISRDNAKNTVDLQMISLKPEDTAVYYCAALGHVDDSIYDYWGQGTQVTVSS”, for which the “polyreactivity (PSR sort gate)” value was “high polyreactivity”.

With “QVQLVESGGGLVQARGSLRLTWAASGRTFGINAMGWYRQAPGKERELVAVISGSGGNTYYADSVKGRFTISRDNAKNTVYLQMNSLKPEDTAVYYFATSYEKFRYDHGYWGQGTQVTVSS”, the “polyreactivity (PSR sort gate)” value is recorded as “low polyreactivity”.

As to “QVQLVESGGGLVQARGSRRLSCAASGLTFVPTAMGWYRQAPGKEREFVAAISNNGGRKYYADSVKGRFTISRDNAKNRVYLQINSLKPDDTAVYYCAKYLSPGERHSYDYWGQGTQVTVSS”, the “polyreactivity (PSR sort gate)” value is “high polyreactivity”.

Regarding “QVQLVESGGGLVQARVSLRLSCAASGRIYGYTMGWYRQAPGKERELVAAITRNGGSTYYADSVKARFTISRDNSKNTVSLQMNSLKPEDNAVYYCAARNAFGTYYAWGQGTQVTVAS”, the “polyreactivity (PSR sort gate)” value is “high polyreactivity”.

On to “QVQLVESGGGLVQARVSLRLSCAASGSIFNGYAMRWYRQAPGKESEFVAAISASGGGTYYADSVKGRFTISRDNAKNTVYLQMNSLKPEDTAVYYCNARYHPYYWGYRYDYWGQGTQVTVSS”, for which the “polyreactivity (PSR sort gate)” value is “low polyreactivity”.

With “QVQLVESGGGLVQAVGILRLSCASYGRTFVANAMGWYIQAPGKERELVAGITCGDSTYYADSVKWRFTISRDNAKNTVYLQMNRLKPEDTAVYYCSAPYNFWNFFDLIYVWDGYDYWGQGTQVTVSS”, the “polyreactivity (PSR sort gate)” value is given as “low polyreactivity”.

On to “QVQLVESGGGLVQAVGRLRLSCAASGFTFPWYAMGWYRHAPGKERELVAAISTSGDSTYYADSVKGRFTISRDNAKNTVYLQMNSLKPADTAVYYCAARVVRGRYGYWGQGTQVTVSS”, for which the “polyreactivity (PSR sort gate)” value is given as “high polyreactivity”.

Take “QVQLVESGGGLVQAVGRLRLSCAASGRILPLYAMGWYRQAPGKEREMVADITGSDGSTYYADSVKGRFSISRDNAKNTVYLQMNSLKPEDTAVYYCATDAIGRTPSDPWDYYYWGQGTQVTVSS”: the “polyreactivity (PSR sort gate)” value is “low polyreactivity”.

Turning to “QVQLVESGGGLVQAVGSLRLSCAACGRILWYYTMGWYRQAPAKERELVAAISGRGSSTYYADSVKGRFTISRDNAKNTVYLQMNSLKPEDTAVYYCNAALRTRRGDYDYWGQGTQVTVSS”, the “polyreactivity (PSR sort gate)” value is “high polyreactivity”.

On to “QVQLVESGGGLVQAVGSLRLSCAASGFTFGRYAMGWYIQAPAKEREFVASISARGGNTFYADSVKGRFTISRDNAKNTVYLQMNSLKPEDTAVYYCNAYYLAEYDYWGQGTQVTVSS”, for which the “polyreactivity (PSR sort gate)” value is on record as “high polyreactivity”.

Consider “QVQLVESGGGLVQAVGSLRLSCAASGLTFYIYVMGCYRQAPGKERELVAAISGSGGSTYYADSVKGRFTISRDNAKNTVYLHLNSLKLEDTALYYCNAEDWWRYLRGEDDYWGQGTQVTVSS”, for which the “polyreactivity (PSR sort gate)” value is “high polyreactivity”.

As to “QVQLVESGGGLVQAVGSLRLSCAASGRIFPYYAMGWYSQAPGKERELVAVFTIGGNSYYADSVKGRFTMSRDNAKNTVYLQMNSLKPEDTAVYYCAASAYSYYRFDYWGQGTQVTVSS”, the “polyreactivity (PSR sort gate)” value is listed as “low polyreactivity”.

As to “QVQLVESGGGLVQAVGSLRLSCAASGRTFNLYAMGWYRQAPGKERELVAAITRRGGRTYYADSVKGRFTISRDNAKNTVYLQMNSLKPEDTAVYYCAARGYYGKFSGSGYWGQGTQVTVSS”, the “polyreactivity (PSR sort gate)” value is on record as “high polyreactivity”.

With “QVQLVESGGGLVQAVGSLRLSCAASGSILVTYMGWYRPAPGKEREVVAAISYTGGSTYYADSVKGRFTISRDNAKNSVYLQMNSLKPEDTEVFYCASFYLASETYYYFYWPKDSDDYCGQGTQVTVSS”, the “polyreactivity (PSR sort gate)” value was “low polyreactivity”.

For “QVQLVESGGGLVQAVGSLRLSCAASGSTFHWYDMGWYRQAPGKERELVPGINSSGDGTYYADSVKGRFTISRDNAKNTVYLQMNSLKPEDTAVYDCAAPWWYYGVPYQTNKYDYWGQGTQVTLSS”, the “polyreactivity (PSR sort gate)” value was “low polyreactivity”.

For “QVQLVESGGGLVQAVGSLRLSCAASGSTFPRYAMRWYRQAPGKERELVAAISRSGGSTYYADSVKGRFTISRDNATNTVYLQMNSLKPEDTAVYYCAARDDRGSYKYDYWRQGTQVTVSS”, the “polyreactivity (PSR sort gate)” value is “high polyreactivity”.

On to “QVQLVESGGGLVQAVGSLRLSCAASGSTFPYYTMGWYRQAPGKERELVAAITASGGSTYYADSVKGRVTISRDNAKNTVYLQMNSLKPEDTAVYYCAATCLNHVRKSRGYDYWGQGTQVTVSS”, for which the “polyreactivity (PSR sort gate)” value is given as “high polyreactivity”.

Take “QVQLVESGGGLVQAVGSLRLSCAASGSTFYPYAMGWYRQSPGKERELVAAISISGGITYYADSVKVRFTISRDNAKNTVYLQMNSLKPEDTAVYYCAAEYLAVSGYWYDYWGQGTQVTVSS”: the “polyreactivity (PSR sort gate)” value is on record as “high polyreactivity”.

As to “QVQLVESGGGLVQAVGSLRLSCADSGTFPYYAMGRYRQAPWKERELVAAITRSGTRTYYADSVKGRFTISRDNAKNTGYLQMKSLKPEDTAVYYCAARQTGFSSQFRGYYSWGQGTQVTVSS”, the “polyreactivity (PSR sort gate)” value was “high polyreactivity”.

Regarding “QVQLVESGGGLVQAVGSLRLSSAASGSIFYVYAMGWYRQAPGKERELVAAMTNYADSVKGRFTISRDNAKNTVYLQMNSLKPEDTAVYYCAADWWRVEMDYWGQGTQVTVSS”, the “polyreactivity (PSR sort gate)” value is “low polyreactivity”.

As for “QVQLVESGGGLVQAVGSLRLTCAASGSIFGHYAMGLSRHAPGKDRELVAAISASTGRTYNADSVKGRFTISRDNAKNPVYLQMNSLKPEDTAFYYCAVRVHWTIWDYYYWGQGTQVTVSS”, the “polyreactivity (PSR sort gate)” value is “high polyreactivity”.

Consider “QVQLVESGGGLVQAVSSLRLSCAASGYIFDRNAMGWYRRAPGKERELVAAITKRGGITYYADSVKGRFTISRDNAKNTVYLQMNSLKPEDTAVYYCAAKTLYNSGTQDRAMGYWGQGTQVTVSS”, for which the “polyreactivity (PSR sort gate)” value was “high polyreactivity”.

With “QVQLVESGGGLVQEGGSLLLSCDASGFTFAVYAMGWYRQAPGKERELVAAITTSGTRTYNADSVKGRFTISRDNAKNTVYLQMNSLKPEDTAVYYCAAVVFRQWPEFDYWGQGTQVTVSS”, the “polyreactivity (PSR sort gate)” value was “low polyreactivity”.

As for “QVQLVESGGGLVQEGGSLLLSFAASGSTFGYYAMGWYRQAPGKEREFVAAISDSGDGTYYADSVKGRFTISRDNEKNTVYLQMNSLKQEDTAVYYCAAEAPYYFGWWYGYKYDSWGQGTQVTVSW”, the “polyreactivity (PSR sort gate)” value is “high polyreactivity”.
